Reference: US20050244966A1, “Insulin producing cells” (Ramot At Tel Aviv University Ltd., priority 2003, published 2005)

What was measured:
FH-B-TPN cells [1] = experiment: Insulin content of FH-B-TPN cells (RIA/ELISA of cell extracts); type: cell-based, human; settings: for Insulin content: RIA; for Fold increase (insulin content): vs CM
Method: FH cells were isolated and cultured as described (19), in Dulbecco's modified Eagle's medium containing 25 mM glucose and supplemented with 10% fetal bovine serum (FBS), 100 U/ml penicillin, 100 μg/ml streptomycin, 5 μM hydrocortisone, and 5 μg/ml insulin. A subclone of FH cells that was stably transduced with hTERT, designated FH-B-hTERT (FH-B), was cultured in the same medium, as described (20). FH-B cells transduced with the Pdx1 gene (see below), designated FH-B-TPN cells, were maintained in the same culture medium, with the exception of hydrocortisone and insulin (complete medium CM). For incubation in serum-free medium, the cells were placed in DMEM containing antibiotics, in the presence of 100 ng/ml insulin, 55 ng/ml transferrin, and 50 pg/ml selenium (ITS, Sigma). For all experiments activin A (Cytolab/PreproTech Asia, Rehovot, Israel) was added at a final concentration of 4 nM. except for those aimed at promoting differentiation of FH-B-TPN cells towards the beta-cell phenotype. There, addition of Act-A, as well as betacellulin (BTC, R&D Systems, Minneapolis, Minn.), nicotinamide (NA), exendin-4, and hepatocyte growth factor (HGF) (the last 3 compounds from Sigma-Aldrich) was at concentrations detailed herein below.
(§1) Insulin secretion from FH-B-TPN cells was measured by static incubation as previously described (2). Cells were plated in 24-well plates at 10^5 cells per well. The cells were preincubated for 1 hour in Krebs-Ringer buffer (KRB), followed by incubation for the indicated period of time in KRB containing 0.5 mM 1-isobutyl 3-methylxanthine (IBMX) and glucose at various concentrations. The cells were then extracted in acetic acid, and the amount of insulin in the buffer and cell extract was determined by radioimmunoassay (RIA) using the INSIK-5 kit (DiaSorin, Vercelli, Italy) according to the manufacturer. This assay has <20% crossreactivity with proinsulin. In addition, insulin content was determined using an ELISA kit (Diagnostic Systems Laboratories, Webster, Tex. or (Mercodia, Uppsala, Sweden), which recognizes only mature insulin. Insulin content was normalized to total cellular protein, measured by the Bio-Rad (Hercules, Calif.) Protein Assay kit. Human C-peptide in the cell extract was determined using a RIA kit (DiaSorin, Vercelli, Italy) or ELISA kit (Mercodia, Uppsala, Sweden) according to the manufacturers.

FH-B-TPN cells [2] = experiment: RT-PCR analysis of gene expression in FH-B-TPN cells; type: cell-based, human; settings: 4 nM activin A; FIG. 7
Method: Total RNA was extracted from cultured cells, mature human hepatocytes (obtained from Incara Cell Technologies, North Carolina), and human pancreatic islets (obtained through the Juvenile Diabetes Research Foundation Islet Distribution Program), using commercial kits (High Pure RNA isolation kit, Roche Molecular Biochemicals, Mannhein, Germany; Trizol Reagent, Invitrogen Life Technologies, Carlsbad, Calif.).
Specific transcripts were analyzed with Promega (Madison, Wis.) RT-PCR kit or GeneAmp Gold RNA PCR kit (Perkin Elmer Corp., Indianapolis, Ind.) or Superscript III RT-PCR (Invitrogene Life Technologies, Carlsbad, Calif.) according to the manufacturers. The absence of DNA contamination in RNA samples was confirmed with PCR primers flanking an intron. cDNA was amplified for 40 cycles (94° C. for 45 sec; annealing under conditions indicated in Table 1 below for 45 sec; 72° C. for 40 sec), using the primer pairs listed in Table 1 below.
PCR products were separated by electrophoresis in 1.5%-2.5% agarose gels and visualized by ethidium bromide staining.

FH-B-TPN cells [3] = experiment: Immunofluorescence analyses of protein expression in FH-B-TPN cells; type: cell-based, human; settings: 6 days in serum-free medium with ITS and activin A; FIG. 8
Method: FH-B-TPN cells plated in 6-well plates on sterilized coverslips were fixed in 4% paraformaldehyde. For cytoplasmic antigens, cells were blocked for 10 min at room temperature in 5% bovine serum albumin, 5% FBS and 0.1% Triton X-100, and stained with the antibodies as detailed in Table 2 diluted in blocking solution, for 1 hour at room temperature.
For immunostaining of nuclear antigens, cells were permeabilized in 0.25% NP40 for 10 min at room temperature prior to blocking, followed by incubation with the primary antibody as detailed in Table 2 hereinabove. The stained cells were photographed under a Zeiss confocal microscope. FH-B, Cos7 or 293T cells were used as negative controls. Nuclei were visualized with DAPI (Roche) staining for 5 minutes at room temperature. Kidney tissue was fixed in 4% paraformaldehyde, embedded in paraffin, and sectioned. Sections were rehydrated, washed in PBS, and unmasked (if needed) in Unmasking Solution (Vector Laboratories, Burlingame, Calif.) according to the manufacturer. Sections were blocked for 2 h in 0.2% Tween 20 and 0.2% gelatin, incubated overnight at 4° C. with primary antibodies and 2 h at room temperature with the secondary antibodies as detailed in Table 2 hereinabove, stained with DAPI, and mounted. BrdU staining was performed as previously described (28b).

FH-B-TPN cells [4] = experiment: Human C-peptide in cell extract and culture medium (ELISA); type: cell-based; settings: SFM (6 d) then 3 nM Act-A in SFM (3 d)
Method: as §1

FH-B-TPN cells [5] = experiment: Cell doubling time by cell counting; TUNEL assay; type: cell-based, human
Description: The cell doubling time, as determined by cell counting, was not affected by Act-A treatment in CM. […] No apoptotic cells were detected using a TUNEL assay under any of the conditions (data not shown).

[6] = FH-B-TPN cells, 4 nM in CM (6 d)
[7] = SFM (6 d) then 3 nM Act-A in SFM (3 d)

B1: activin A (protein, UniProt P08476 311-426, looked up)
Inhibin beta A chain: GLECDGKVNICCKKQFFVSFKDIGWNDWIIAPSGYHANYCEGECPSHIAGTSGSSLSFHSTVINHYRMRGHSPFANLKSCCVPTKLRPMSMLYYDDGQNIIKKDIQNMIVEECGCS
FH-B-TPN cells [1]; 6 days in serum-free medium supplemented with both ITS and activin A
  Insulin content compared with serum-free medium without activin A: further doubling
FH-B-TPN cells [1]; [6]
  Insulin content: 729 ± 55 ng/10^6 cells
FH-B-TPN cells [1]; FH-B-TPN cells, Act-A 3 nM in CM (3 d) + CM (6 d), mean ± SD (n = 3)
  Insulin content: 1661 ± 319 ng/10^6 cells
FH-B-TPN cells [1]; FH-B-TPN cells, Act-A 3 nM in CM (3 d) + CM (6 d)
  Fold increase (insulin content): 8.8
FH-B-TPN cells [1]; FH-B-TPN cells, Act-A 3 nM in CM (3 d) + SFM (6 d), mean ± SD (n = 3)
  Insulin content: 1493 ± 229 ng/10^6 cells
FH-B-TPN cells [1]; FH-B-TPN cells, Act-A 3 nM in CM (3 d) + SFM (6 d)
  Fold increase (insulin content): 7.9
FH-B-TPN cells [1]; FH-B-TPN cells, Act-A 3 nM in CM (3 d), mean ± SD (n = 3)
  Insulin content: 1399 ± 269 ng/10^6 cells
FH-B-TPN cells [1]; FH-B-TPN cells, Act-A 3 nM in CM (3 d)
  Fold increase (insulin content): 7.4
FH-B-TPN cells [1]; FH-B-TPN cells, Act-A 3 nM in SFM (3 d), mean ± SD (n = 3)
  Insulin content: 2143 ± 179 ng/10^6 cells
FH-B-TPN cells [1]; FH-B-TPN cells, Act-A 3 nM in SFM (3 d)
  Fold increase (insulin content): 11.4
FH-B-TPN cells [1]; FH-B-TPN cells, Act-A 1-8 nM in regular medium (CM) for 6 days, FIG. 9
  Concentration giving maximal (optimal) increase in insulin content: 3 nM
FH-B-TPN cells [1]; FH-B-TPN cells, SFM (6 d) + Act-A 3 nM in SFM (3 d)
  Fold increase (insulin content): 33
FH-B-TPN cells [1]; [7]
  Increase over insulin content of cells incubated 9 days in SFM without Act-A: 2.6 fold
  Insulin content as share of the cellular protein content: 6%
  Insulin content relative to normal human pancreatic islets: about 60%
  Share of stored insulin in the form of mature protein (ELISA vs RIA): 95%
FH-B-TPN cells [2]
  Glucagon mRNA: disappeared after an overnight treatment
  PAX4 and GLUT2 mRNAs: appeared following 3 days of treatment
FH-B-TPN cells [3]
  PP staining: disappeared
  Percent of cells stained for GK, PC1/3, and PC2: increase
  Percent of cells stained for NGN3: significant decrease
  Percentage of cells stained for ISL1, NKX6.1, and NKX2.2: significant increase
FH-B-TPN cells [4]
  Human C-peptide secreted into the culture medium: 43.5±1.3 ng/10^6 cells
FH-B-TPN cells [4]; ELISA
  Human C-peptide levels in cells: 5153±180 ng/10^6 cells
FH-B-TPN cells [5]
  Cell doubling time compared with cells growing in CM: not affected

B2: betacellulin (protein, UniProt P35070 32-111, looked up)
Betacellulin: DGNSTRSPETNGLLCGDPEENCAATTTQSKRKGHFSRCPKQYKHYCIKGRCRFVVAEQTPSCVCDEGYIGARCERVDLFY
notes: betacellulin (R&D Systems), soluble factor
FH-B-TPN cells [1]; [6]
  Insulin content: 264 ± 7 ng/10^6 cells
  Fold increase (insulin content): 1.4
